Residues, ends and D or L forms follow the SMILES beside them. No end group written: not given here. *: point of attachment. Propyl(3-UDP) = O=c1ccn([C@@H]2O[C@H](COP(=O)(O)OP(=O)(O)OCCC*)[C@@H](O)[C@H]2O)c(=O)[nH]1; Floc = 5(6)-fluorescein carboxamide; Ahx = NCCCCCC(=O)O
T1: hOGT (Homo sapiens, UniProt O15294)
T1 sequence (O15294 312-1031 isoform O15294-3): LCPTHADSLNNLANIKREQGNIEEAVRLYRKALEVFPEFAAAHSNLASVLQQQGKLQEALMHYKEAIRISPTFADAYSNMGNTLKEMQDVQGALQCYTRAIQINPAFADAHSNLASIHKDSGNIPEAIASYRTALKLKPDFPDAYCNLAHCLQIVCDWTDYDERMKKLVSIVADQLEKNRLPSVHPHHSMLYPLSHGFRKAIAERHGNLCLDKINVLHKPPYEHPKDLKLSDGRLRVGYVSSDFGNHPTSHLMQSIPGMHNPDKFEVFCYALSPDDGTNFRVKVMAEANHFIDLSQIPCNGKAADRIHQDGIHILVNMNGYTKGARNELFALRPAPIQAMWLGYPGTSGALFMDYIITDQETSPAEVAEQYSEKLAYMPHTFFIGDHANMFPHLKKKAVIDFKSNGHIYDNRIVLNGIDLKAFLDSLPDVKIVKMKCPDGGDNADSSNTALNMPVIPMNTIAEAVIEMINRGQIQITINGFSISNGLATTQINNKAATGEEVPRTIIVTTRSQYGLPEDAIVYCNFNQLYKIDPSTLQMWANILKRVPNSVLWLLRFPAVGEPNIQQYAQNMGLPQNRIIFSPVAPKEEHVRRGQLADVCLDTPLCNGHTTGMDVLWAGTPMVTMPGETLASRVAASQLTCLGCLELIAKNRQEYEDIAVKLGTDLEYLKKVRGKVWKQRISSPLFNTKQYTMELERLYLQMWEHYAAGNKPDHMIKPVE

T2: human O-GlcNAc transferase (human, UniProt O15294 1-1046)
T2 sequence (looked up): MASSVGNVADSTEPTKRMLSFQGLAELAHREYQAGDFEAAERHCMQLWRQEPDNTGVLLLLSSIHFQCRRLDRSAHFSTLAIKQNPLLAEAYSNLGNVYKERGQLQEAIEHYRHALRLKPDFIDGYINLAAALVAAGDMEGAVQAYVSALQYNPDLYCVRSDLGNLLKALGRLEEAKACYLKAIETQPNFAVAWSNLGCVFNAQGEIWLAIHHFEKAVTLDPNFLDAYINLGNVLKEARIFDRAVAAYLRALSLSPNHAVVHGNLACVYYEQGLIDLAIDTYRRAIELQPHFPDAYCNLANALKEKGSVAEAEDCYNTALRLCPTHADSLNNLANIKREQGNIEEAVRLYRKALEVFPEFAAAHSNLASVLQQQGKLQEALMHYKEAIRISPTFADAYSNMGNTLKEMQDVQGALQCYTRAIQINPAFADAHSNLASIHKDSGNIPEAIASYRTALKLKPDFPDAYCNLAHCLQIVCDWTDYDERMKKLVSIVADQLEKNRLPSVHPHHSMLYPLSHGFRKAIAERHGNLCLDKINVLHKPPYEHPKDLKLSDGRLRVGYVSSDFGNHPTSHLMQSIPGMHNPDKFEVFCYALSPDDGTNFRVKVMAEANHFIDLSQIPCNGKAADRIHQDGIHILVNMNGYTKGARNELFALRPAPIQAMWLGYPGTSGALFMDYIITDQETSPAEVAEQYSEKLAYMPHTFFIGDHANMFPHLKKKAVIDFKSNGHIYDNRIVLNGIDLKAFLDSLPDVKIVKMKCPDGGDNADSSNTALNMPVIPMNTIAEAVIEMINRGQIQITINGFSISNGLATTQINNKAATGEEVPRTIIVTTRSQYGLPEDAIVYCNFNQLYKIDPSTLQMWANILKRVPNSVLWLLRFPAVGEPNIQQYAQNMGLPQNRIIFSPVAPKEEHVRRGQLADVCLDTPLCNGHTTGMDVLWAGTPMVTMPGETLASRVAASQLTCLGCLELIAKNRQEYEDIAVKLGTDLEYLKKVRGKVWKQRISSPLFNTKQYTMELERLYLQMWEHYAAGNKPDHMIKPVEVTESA


Experiments:
hOGT [1] = target: T1, hOGT; assay: fluorescence polarimetry assay, displacement of probe 17 from hOGT; type: binding; conditions: displacement of 0.75 µM 17 from 0.8 µM hOGT
Protocol: The derived values of Ki = 7 ± 2 μM (1) and Ki = 5 ± 2 μM (UDP-5S-GlcNAc) were in agreement with the previously reported affinities,[20],[25] validating this assay.
Next, we used this assay platform to examine the effect of the peptide sequence on the inhibitory potency of the S-linked UDP–peptide conjugates. We compiled a set of peptides derived from the known hOGT substrate proteins RB2, TAB1, CK2, and KER, as well as a previously published hOGT sequon[38] (Table 1). The topology of the heptapeptides in the 7-S5C subseries (19–23) was chosen to replicate that of the peptide 5. The nonapeptides 9-S5C (24–26) were designed with a centrally located Cys. […] The TEC reaction of allyl-UDP 4 with all substrates worked routinely well to give an array of the novel S-linked UDP–peptide conjugates 29–38 (Table 1, Table S1) that were evaluated by the modified FP assay (Table 1, Figure 5).
Fluorescence polarimetry measurements […]
probe (125 nM) in 0.1 M Tris-HCl pH 7.5, 0.15 M NaCl, 0.5 mM TCEP and 5% DMSO in a total volume of 25 µL and incubated in the dark for 30 min before read-out.
Binding affinities for ligands were determined by 17 displacement. […] Fluorescence polarisation was measured on a PHERAStar plate reader (BMG LABTECH). Data analysis was performed in GraphPad Prism 7 and binding constants for the labelled 17 and 18 were determined by fitting a one-site – Total binding curve. […]

[2] = target: human O-GlcNAc transferase (human) (UniProt O15294)
SH-SY5Y cells = assay: total O-GlcNAcylation in cell culture, Western blot (SH-SY5Y); type: cell-based; conditions: 24 h, concentrations up to 1 mM
hOGT [3] = target: T1, hOGT; assay: fluorometric hOGT activity assay (UDP formation)
OGT = target: OGT; parameters: method as in PMID 23103942; conditions: read-out: Kd of donor substrate; cited from earlier work
[4] = target: T2, human O-GlcNAc transferase; assay: fluorescence polarisation; direct binding of the fluorescein-labeled conjugates 17 and 18 to hOGT; conditions: both partners purified
[5] = target: T2, human O-GlcNAc transferase; assay: fluorescence polarisation; competition: displacement of the fluorescent probe 17 from hOGT by unlabeled conjugates, Ki derived; conditions: both partners purified
[6] = target: T2, human O-GlcNAc transferase; assay: cell-based or functional assay
[7] = target: T2, human O-GlcNAc transferase; assay: fluorescence polarisation; competition: displacement of the fluorescent probe 17 from hOGT by unlabeled conjugates, Ki derived; conditions: both partners purified; remark: listed apart in the source

Row | Molecule | Ki [5] | other results
1 | CC(=O)N[C@H](C(=O)N[C@H](C(=O)N1CCC[C@H]1C(=O)N[C@H](C(=O)N[C@@H](CSCCCOP(=O)(O)OP(=O)(O)OC[C@H]1O[C@@H](n2ccc(=O)[nH]c2=O)[C@H](O)[C@@H]1O)C(=O)N[C@@H](CCCNC(=N)N)C(=O)N[C@@H](C)C(N)=O)C(C)C)[C@@H](C)O)C(C)C [compound 32] (Ac-VTPVC(Propyl(3-UDP))RA-NH2) | – | Ki (hOGT [1]): 1.3 ± 0.5 µM
2 | TAT-VTPVC(S-propyl-UDP)TA S-linked UDP-peptide conjugate 13 | – | inhibition of hOGT activity in vitro, IC50 [2]: 5 µM
3 | CC(=O)N[C@@H](Cc1ccc(O)cc1)C(=O)NCC(=O)N[C@@H](CCCNC(=N)N)C(=O)N[C@@H](CCCCN)C(=O)N[C@@H](CCCCN)C(=O)N[C@@H](CCCNC(=N)N)C(=O)N[C@@H](CCCNC(=N)N)C(=O)N[C@@H](CCC(N)=O)C(=O)N[C@@H](CCCNC(=N)N)C(=O)N[C@@H](CCCNC(=N)N)C(=O)N[C@@H](CCCNC(=N)N)C(=O)NCCOCCOCC(=O)N[C@H](C(=O)N[C@H](C(=O)N1CCC[C@H]1C(=O)N[C@H](C(=O)N[C@@H](CSCCCOP(=O)(O)OP(=O)(O)OC[C@H]1O[C@@H](n2ccc(=O)[nH]c2=O)[C@H](O)[C@@H]1O)C(=O)N[C@H](C(=O)N[C@@H](C)C(N)=O)[C@@H](C)O)C(C)C)[C@@H](C)O)C(C)C [compound 13] | – | effect on total O-GlcNAcylation in cell cultures (SH-SY5Y cells): neither 11 nor 13 had a noticeable effect; IC50 (hOGT [3]): 5 µM
4 | CC(=O)N[C@H]1[C@@H](OP(=O)(O)OP(=O)(O)OC[C@H]2O[C@@H](n3ccc(=O)[nH]c3=O)[C@H](O)[C@@H]2O)O[C@H](CO)[C@@H](O)[C@@H]1O [UDP-GlcNAc] | – | Kd (OGT): 16 µM
5 | CC(=O)N[C@@H]1[C@@H](O)[C@H](O)[C@@H](CO)S[C@@H]1OP(=O)(O)OP(=O)(O)OC[C@H]1O[C@@H](n2ccc(=O)[nH]c2=O)[C@H](O)[C@@H]1O [UDP-5S-GlcNAc, reference compound] | – | Ki (hOGT [1]): 5 ± 2 µM
6 | {Floc-Ahx}-VTPVC(S‑propyl‑UDP)TA [5(6)-fluorescein carboxamide (Floc) labeled S-linked UDP-peptide conjugate 17] | – | Kd [4]: 1.6 µM
7 | PVC(S‑propyl‑UDP)TATHSLSRLH [S-linked UDP-peptide conjugate 37, PVC(S-propyl-UDP)TATHSLSRLH] | 80 ± 46 µM | –
8 | KENSPAVTPVC(S‑propyl‑UDP)TA [S-linked UDP-peptide conjugate 38, KENSPAVTPVC(S-propyl-UDP)TA] | 1.8 ± 1.3 µM | –
9 | SVPYC(S‑propyl‑UDP)SA [S-linked UDP-peptide conjugate 30, SVPYC(S-propyl-UDP)SA] | 2.3 ± 1.6 µM | –
10 | PVFTC(S‑propyl‑UDP)RS [S-linked UDP-peptide conjugate 33, PVFTC(S-propyl-UDP)RS] | 12.5 ± 7 µM | –
11 | SVPYC(S‑propyl‑UDP)SAQS [S-linked UDP-peptide conjugate 35, SVPYC(S-propyl-UDP)SAQS] | 15 ± 2.3 µM | –
12 | PVFTC(S‑propyl‑UDP)RSAA [S-linked UDP-peptide conjugate 36, PVFTC(S-propyl-UDP)RSAA] | 56 ± 32 µM | –
13 | VTPVC(S‑propyl‑UDP)TA [S-linked UDP-peptide conjugate 6, VTPVC(S-propyl-UDP)TA] | 1.3 ± 0.8 µM | inhibition of hOGT activity, fluorometric OGT activity assay, IC50 [6]: 2 µM
14 | VTPVC(S‑propyl‑UDP)SA [S-linked UDP-peptide conjugate 31, VTPVC(S-propyl-UDP)SA] | 1.2 ± 1.3 µM | –
15 | VTPVS(O‑propyl‑UDP)TA [O-linked UDP-peptide conjugate 1, VTPVS(O-propyl-UDP)TA] | – | Ki [7]: 7 ± 2 µM
16 | VPTVC(S‑propyl‑UDP)TA [S-linked UDP-peptide conjugate 29, VPTVC(S-propyl-UDP)TA] | 12.8 ± 4.5 µM | –
17 | VTPVC(S‑propyl‑UDP)TATH [S-linked UDP-peptide conjugate 34, VTPVC(S-propyl-UDP)TATH] | 12.7 ± 2.3 µM | –
